In US20260167721A1 (ABLEXIS, published 2026):

B1: CD3 × CD33-BspAb71 (bispecific antibody)
chain 1: EVQLVESGGGLVKPGGSLRLSCAASGFTFSSYSMNWVRQAPGKCLEWVSSISRSSSYIYYADSVKGRFTLSRDNAKNSLYLQMNSLRGEDTAIYYCGRDGKGAIFLDYWGQGTLVTVSSGGGGSGGGGSGGGGSGGGGSSYELTQPPSVSVSPGQTARITCSGDALPKKYAYWYQQKSGQAPVLVIYEDSKRPSGIPERFSGSSSGTMATLTISGAQVEDEADYYCYSTHSSGNHRVFGCGTKLTVLDKTHTCPPCPAPEFEGGPSVFLFPPKPKDTLMISRTPEVTCVVVDVSHEDPEVKFNWYVDGVEVHNAKTKPREEQYNSTYRVVSVLTVLHQDWLNGKEYKCKVSNKALPASIEKTISKAKGQPREPQVYTLPPCREEMTKNQVSLWCLVKGFYPSDIAVEWESNGQPENNYKTTPPVLDSDGSFFLYSKLTVDKSRWQQGNVFSCSVMHEALHNHYTQKSLSLSPGK
chain 2: EVQLVQSGAEVKKPGSSVKVSCKASGYTITDSNIHWVRQAPGQSLEWIGYIYPYNGGTDYNQKFKNRATLTVDNPTNTAYMELSSLRSEDTAFYYCVNGNPWLAYWGQGTLVTVSSASTKGPSVFPLAPSSKSTSGGTAALGCLVKDYFPEPVTVSWNSGALTSGVHTFPAVLQSSGLYSLSSVVTVPSSSLGTQTYICNVNHKPSNTKVDKRVEPKSCDKTHTCPPCPAPEFEGGPSVFLFPPKPKDTLMISRTPEVTCVVVDVSHEDPEVKFNWYVDGVEVHNAKTKPREEQYNSTYRVVSVLTVLHQDWLNGKEYKCKVSNKALPASIEKTISKAKGQPREPQVCTLPPSREEMTKNQVSLSCAVKGFYPSDIAVEWESNGQPENNYKTTPPVLDSDGSFFLVSKLTVDKSRWQQGNVFSCSVMHEALHNRFTQKSLSLSPGK
chain 3: DIQLTQSPSTLSASVGDRVTITCRASESLDNYGIRFLTWFQQKPGKAPKLLMYAASNQGSGVPSRFSGSGSGTEFTLTISSLQPDDFATYYCQQTKEVPWSFGQGTKVEVKRTVAAPSVFIFPPSDEQLKSGTASVVCLLNNFYPREAKVQWKVDNALQSGNSQESVTEQDSKDSTYSLSSTLTLSKADYEKHKVYACEVTHQGLSSPVTKSFNRGEC
B2: CD3 × CD33-BspAb86 (bispecific antibody)
chain 1: EVQLVESGGGLVKPGGSLRLSCAASGFTFSSYSMNWVRQAPGKCLEWVSSISRSGTYIYYADSVKGRFTISRDNAKNSLYLQMNSLRAEDTAVYYCARERWELLYFDYWGQGTLVTVSSGGGGSGGGGSGGGGSGGGGSQTVVTQEPSLTVSPGGTVTLTCASSTGAVTSGYYPNWFQQKPGQAPRALIYSTSNKHSWTPARFSGSLLGGKAALTLSGVQPEDEAEYYCLLYYGGAYVFGCGTKVTVLDKTHTCPPCPAPEFEGGPSVFLFPPKPKDTLMISRTPEVTCVVVDVSHEDPEVKFNWYVDGVEVHNAKTKPREEQYNSTYRVVSVLTVLHQDWLNGKEYKCKVSNKALPASIEKTISKAKGQPREPQVYTLPPCREEMTKNQVSLWCLVKGFYPSDIAVEWESNGQPENNYKTTPPVLDSDGSFFLYSKLTVDKSRWQQGNVFSCSVMHEALHNHYTQKSLSLSPGK
chain 2: B1 chain 2
chain 3: B1 chain 3
B3: High affinity Control (Control Humanized anti-CD3 (high affinity) scFv-Fc knob/TM with gemtuzumab arm) (bispecific antibody)
scFv: EVQLVESGGGLVQPGGSLRLSCAASGFTFSTYAMNWVRQAPGKGLEWVGRIRSKYNNYATYYADSVKGRFTISRDDSKNTLYLQMNSLRAEDTAVYYCVRHGNFGDSYVSWFAYWGQGTLVTVSSGKPGSGKPGSGKPGSGKPGSQAVVTQEPSLTVSPGGTVTLTCGSSTGAVTTSNYANWVQQKPGKSPRGLIGGTNKRAPGVPARFSGSLLGGKAALTISGAQPEDEADYYCALWYSNHWVFGGGTKLTVLGGGGSDKTHTCPPCPAPEFEGGPSVFLFPPKPKDTLMISRTPEVTCVVVDVSHEDPEVKFNWYVDGVEVHNAKTKPREEQYNSTYRVVSVLTVLHQDWLNGKEYKCKVSNKALPASIEKTISKAKGQPREPQVYTLPPCREEMTKNQVSLWCLVKGFYPSDIAVEWESNGQPENNYKTTPPVLDSDGSFFLYSKLTVDKSRWQQGNVFSCSVMHEALHNHYTQKSLSLSPGK
heavy: B1 chain 2
light: B1 chain 3
B4: CD3 × CD33-BspAb125 (bispecific antibody)
chain 1: not shown
chain 2: B1 chain 2
chain 3: B1 chain 3

What was measured:
[1] = target: T1, human CD3 (on human Pan-T cells or donor PBMC) (human, UniProt P07766 23-207; P04234 22-171; P09693 23-182; P20963 22-164); assay: cell-based or functional assay
[2] = target: T1, human CD3 (on human Pan-T cells or …); assay: cell-based or functional assay; remark: listed apart in the source

T1 sequence (P07766 23-207, chain 1 of 4): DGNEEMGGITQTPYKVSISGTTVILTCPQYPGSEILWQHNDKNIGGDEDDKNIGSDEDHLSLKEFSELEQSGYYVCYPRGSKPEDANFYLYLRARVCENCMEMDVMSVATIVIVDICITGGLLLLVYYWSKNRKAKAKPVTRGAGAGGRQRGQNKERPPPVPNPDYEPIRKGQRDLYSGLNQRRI
T1 sequence (P04234 22-171, chain 2 of 4): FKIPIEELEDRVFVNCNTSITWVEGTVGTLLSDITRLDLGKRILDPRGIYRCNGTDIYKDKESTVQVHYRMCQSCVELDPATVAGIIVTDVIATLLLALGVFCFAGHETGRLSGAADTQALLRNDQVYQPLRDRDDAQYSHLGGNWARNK
T1 sequence (P09693 23-182, chain 3 of 4): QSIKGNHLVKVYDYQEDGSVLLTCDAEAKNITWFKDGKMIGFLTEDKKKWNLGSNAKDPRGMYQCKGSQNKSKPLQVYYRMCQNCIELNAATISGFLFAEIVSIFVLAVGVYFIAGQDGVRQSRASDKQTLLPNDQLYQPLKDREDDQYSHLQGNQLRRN
T1 sequence (P20963 22-164, chain 4 of 4): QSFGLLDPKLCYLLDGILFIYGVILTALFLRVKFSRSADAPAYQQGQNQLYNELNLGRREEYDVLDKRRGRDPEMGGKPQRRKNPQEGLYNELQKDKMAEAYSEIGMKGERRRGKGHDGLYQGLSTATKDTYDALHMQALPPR

Binder	Cytokine Release Assay (IFNγ), Donor 0, gMFI max [1] [gMFI]	Cytokine Release Assay (IFNγ), Donor 1, gMFI max [1] [gMFI]	Cytokine Release Assay (IFNγ), Donor 2, EC50 [1] [nM]	Cytokine Release Assay (IFNγ), Donor 2, gMFI max [1] [gMFI]	Cytokine Release Assay (IFNγ), Donor 3, gMFI max [1] [gMFI]	RTCC Assay, Donor 0, EC50 [2] [nM]	RTCC Assay, Donor 0, gMFI max [2] [gMFI]	RTCC Assay, Donor 1, EC50 [2] [nM]	RTCC Assay, Donor 1, gMFI max [2] [gMFI]	RTCC Assay, Donor 2, EC50 [2] [nM]	RTCC Assay, Donor 2, gMFI max [2] [gMFI]	RTCC Assay, Donor 3, EC50 [2] [nM]	RTCC Assay, Donor 3, gMFI max [2] [gMFI]	Cytokine Release Assay (IFNγ), Donor 0, EC50 [1] [nM]	Cytokine Release Assay (IFNγ), Donor 3, EC50 [1] [nM]	Cytokine Release Assay (IFNγ), Donor 1, EC50 [1] [nM]
B1	812000	5380	1.91	27700	332000	0.479	23900	0.027	63000	0.083	57500	0.377	78600	–	–	–
B2	573000	4690	2.68	18500	152000	1.71	24100	0.151	67300	0.697	59100	1.58	83500	2.35	7.93	–
B3	2.82e+06	912000	2.16	1.41e+06	1.68e+06	0.908	75100	0.04	81700	0.039	82900	0.031	87200	0.045	0.126	6.99
B4	958000	4940	0.103	16200	170000	0.166	26700	0.027	65500	0.049	54600	0.055	84200	~12.3	0.063	–
